From patent publication US20140220017A1 come the findings set out here.

Experiment [1] addresses human IgG (human). Kind of experiment: QCM; pH 6.
Experiment [2] addresses mouse IgG (mouse). Kind of experiment: QCM; pH 6.
Experiment [3] deals with human IgG (human). Briefly: QCM; pH 7.4.
Experiment [4] deals with mouse IgG (mouse). Briefly: QCM; pH 7.4.
Experiment [5] addresses human IgG Fc (human). Kind of experiment: QCM; pH 6.
For experiment [6], the target named is mouse IgG Fc (mouse). Briefly: QCM; pH 6.
Experiment [7] deals with human IgG Fc (human). Kind of experiment: QCM; pH 7.4.
In experiment [8] the target is mouse IgG Fc (mouse). Briefly: QCM; pH 7.4.

Take SpAB (from UniProt P38507 212-269): the Kd with human IgG (human) [1] was found to be 350 nM; in the experiment with mouse IgG (mouse) [2], 15 µM; in the experiment with human IgG (human) [3], 9 nM; with mouse IgG (mouse) [4] it was 380 nM.
With SpAD (from UniProt P38507 93-153), the Kd with human IgG (human) [1] came to 148 nM; in the experiment with human IgG Fc (human) [5] it was 30 nM; with mouse IgG (mouse) [2], 0.773 µM; in the experiment with mouse IgG Fc (mouse) [6], 980 nM; with human IgG (human) [3], 22 nM; with human IgG Fc (human) [7], 14 nM. Besides, the figures for the dissociation constant Kd with mouse IgG (mouse) [4] and in the experiment with mouse IgG Fc (mouse) [8] were 56 nM and 54 nM, respectively.
